How the values were obtained:
[1] = molecular target: Anti-CD28 Fab (SEQ ID NOs: 202, 203); assay: phage binding ELISA on captured Fab, competitor CD28 antigen;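 also: clonal phage supernatant binding in wells preincubated with CD28 antigen in blocking buffer, detected by HRP-conjugated anti-M13 antibody ELISA, compared with blocking buffer alone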
Target sequence in this assay (VH, as listed by the source, chain 1 of 2): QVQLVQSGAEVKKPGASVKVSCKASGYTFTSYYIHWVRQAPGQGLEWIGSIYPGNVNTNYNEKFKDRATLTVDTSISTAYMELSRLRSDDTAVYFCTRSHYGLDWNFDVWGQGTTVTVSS
Target sequence in this assay (VL, as listed by the source, chain 2 of 2): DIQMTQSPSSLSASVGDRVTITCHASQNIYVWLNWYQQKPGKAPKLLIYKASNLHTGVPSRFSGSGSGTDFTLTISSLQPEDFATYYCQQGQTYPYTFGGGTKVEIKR
Experimental: (§1) Clonal phage were harvested as crude supernatants and screened via standard ELISAs. […] Prior to the addition of clonal phage, wells were incubated with blocking buffer and CD28 antigen or blocking buffer alone. Without washing or aspirating, clonal phage supernatants were then added to the wells and incubated for a short time. Wells were then washed followed by detection of bound phage using a horse radish conjugated anti-M13 antibody.

[2] = molecular target: Anti-CD28 Fab (SEQ ID NOs: 202, 203); assay: phage binding ELISA on captured Fab;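 also: clonal phage supernatants added briefly to wells pre-incubated with CD28 antigen or with blocking buffer only, then washed, bound phage read by ELISA using HRP-coupled anti-M13 antibody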
Target sequence in this assay (VH, as listed by the source, chain 1 of 2): as the sequence (VH, as listed by the source, chain 1 of 2) above
Target sequence in this assay (VL, as listed by the source, chain 2 of 2): as the sequence (VL, as listed by the source, chain 2 of 2) above
Experimental: as §1

[3] = molecular target: T1, Anti-CD28 Fab (SEQ ID NOs: 202, 203); assay: phage ELISA on captured biotinylated Fab;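 also: wells preblocked with or without CD28 antigen, then clonal phage supernatant added briefly, washed, and bound phage read out by ELISA using HRP-linked anti-M13 antibody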
T1 construct: biotinylated and captured on neutravidin coated plates in the phage ELISA
T1 sequence (VH, as listed by the source, chain 1 of 2): as the sequence (VH, as listed by the source, chain 1 of 2) above
T1 sequence (VL, as listed by the source, chain 2 of 2): as the sequence (VL, as listed by the source, chain 2 of 2) above
Experimental: as §1

[4] = molecular target: T1, Anti-CD28 Fab (SEQ ID NOs: 202, 203); assay: phage ELISA on captured Fab, wells pre-incubated with CD28 antigen (competitor: CD28);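 also: bound clonal phage detected with an HRP-linked anti-M13 antibody, compared against wells that received blocking buffer alone without CD28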
Experimental: as §1

Binder | Anti-CD28 Fab signal in the presence of CD28 [1] | Anti-CD28 Fab (SEQ ID NOs: 202, 203) signal [2] | Anti-CD28 Fab signal [3] | Anti-CD28 Fab signal in the presence of CD28 [4]
YCDGHLPRYMEKCM [Phage-751] | 0.06 | 1.05 |  | 
YCEGHLPMYFLKCM [Phage-270] |  |  | 1.97 | 0.06
YCEGHSPEYMSHCF [Phage-216] |  |  | 2.08 | 0.09
YCDGHAPEYVMKCL [Phage-232] |  |  | 2.05 | 0.1
YCDGHSDQYMWKCL [Phage-261] |  |  | 2 | 0.11
YCEGHAPQYMSKCL [Phage-755] | 0.08 | 1.04 |  | 
YCEGHAAEYMMKCL [Phage-263] |  |  | 1.99 | 0.07
YCEGHAPQYIQKCL [Phage-220] |  |  | 2.07 | 0.07
YCLGHAPQYIQKCL [Phage-243] |  |  | 2.04 | 0.14
YCEGHSVEYILKCL [Phage-757] | 0.06 | 1.04 |  | 
YCDGHLPIYMTQCL [Phage-271] |  |  | 1.97 | 0.08
YCDGHELRYMAKCL [Phage-221] |  |  | 2.07 | 0.07
YCEGHAPQHMDKCL [Phage-240] |  |  | 2.04 | 0.08
YCDGHAIEYMQKCL [Phage-229] |  |  | 2.05 | 0.07
YCMGHQPEYMQKCL [Phage-291] |  |  | 1.93 | 0.08
YCAGHLPEHIGKCL [Phage-207] |  |  | 2.09 | 0.07
YCDGHAQEFMSKCL [Phage-218] |  |  | 2.07 | 0.12
YCDGHLPEYQMKCL [Phage-236] |  |  | 2.05 | 0.08
YCEGHAPEHMAKCL [Phage-214] |  |  | 2.08 | 0.1
YCDGHDARYMTKCL [Phage-756] | 0.09 | 1.04 |  | 
YCDGHLIEYMEKCL [Phage-238] |  |  | 2.04 | 0.06
YCDGHLNEYMEKCL [Phage-298] |  |  | 1.91 | 0.06
YCDGHAEQYMEKCL [Phage-215] |  |  | 2.08 | 0.07
YCDGHSAQYMHKCL [Phage-234] |  |  | 2.05 | 0.06
YCDGHSSAYIDKCL [Phage-752] | 0.06 | 1.05 |  | 
YCEGHAIQYMSKCL [Phage-239] |  |  | 2.04 | 0.06
YCEGHLAEYMDKCL [Phage-272] |  |  | 1.96 | 0.07

Binder | Anti-CD28 Fab signal in the presence of CD28 [1] | Anti-CD28 Fab (SEQ ID NOs: 202, 203) signal [2] | Anti-CD28 Fab signal [3] | Anti-CD28 Fab signal in the presence of CD28 [4]
YCAGHIEEYMWKCL [Phage-230] |  |  | 2.05 | 0.06
YCEGHSDEYMLKCL [Phage-223] |  |  | 2.06 | 0.07
YCDGHSAEYLAKCL [Phage-293] |  |  | 1.93 | 0.08
YCAGHSPEFMEKCL [Phage-297] |  |  | 1.91 | 0.06
YCDGHLPQYMSKCL [Phage-262] |  |  | 2 | 0.1
YCDGHMPQYMSKCL [Phage-266] |  |  | 1.98 | 0.08
YCDGHVGEYMQKCL [Phage-233] |  |  | 2.05 | 0.08
YCAGHLPMYMHKCL [Phage-264] |  |  | 1.99 | 0.18
YCAGHSPEYMGKCM [Phage-209] |  |  | 2.09 | 0.06
YCEGHRAEYMEKCL [Phage-288] |  |  | 1.93 | 0.06
YCEGHSMQHMAKCL [Phage-217] |  |  | 2.07 | 0.08
YCDGHFREYMQKCL [Phage-242] |  |  | 2.04 | 0.06
YCEGHAPEYMMKCI [Phage-224] |  |  | 2.06 | 0.06
YCEGHLPIYMDKCL [Phage-228] |  |  | 2.06 | 0.08
YCDGHAPEFIRKCL [Phage-754] | 0.07 | 1.05 |  | 
YCEGHSSAYMRKCL [Phage-758] | 0.06 | 1.04 |  | 
YCEGHSSEYLGKCL [Phage-750] | 0.09 | 1.05 |  | 
YCEGHAPEYMYKCL [Phage-235] |  |  | 2.05 | 0.07
YCAGHLEIYMQKCL [Phage-211] |  |  | 2.09 | 0.08
YCDGHLWEYMDKCL [Phage-269] |  |  | 1.97 | 0.06
YCEGHLPSYLAKCL [Phage-753] | 0.06 | 1.05 |  | 
YCQGHMPEYMDKCL [Phage-231] |  |  | 2.05 | 0.07
YCEGHADIYMQKCL [Phage-225] |  |  | 2.06 | 0.07
YCEGHLSQYMQKCL [Phage-259] |  |  | 2 | 0.09
YCEGHTAEYLQKCL [Phage-208] |  |  | 2.09 | 0.1
YCAGHASEYLQKCL [Phage-881] | 0.06 | 0.43 |  | 
